From the nanobody polyreactivity screen of Harvey et al. (2022)

Assay: yeast display, Sf9 membrane polyspecificity reagent, FACS + sequencing; frameworks hold sequencing errors
Outline: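 In a synthetic yeast display library (Saccharomyces cerevisiae BJ5465), nanobody expression was induced with galactose for 36–48 hours. FACS gates were set low and high (top ~1%) using anti-HA fluorescence for expression and streptavidin fluorescence for binding of the Sf9 membrane reagent. Each polyreactivity label is drawn from the gate of origin.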

For “QVQRVESGGGLVQAGGSLRLSCAASGFIFEGNAMGWYRQAPGKERELVAAISWSGGRTFYADSVKGRFTISRDHAKNTVYLQMNSLKPEDTAVYYCAAQGRRYGYGDFYYWGQGTQVTVSS”, which “polyreactivity (PSR sort gate)” value is on record?
Its value is “high polyreactivity”.

Which “polyreactivity (PSR sort gate)” value does the source give for “QVQLVESGGGIVQAGGSLRLSCAASGSTFFSNTMGWYRQAPGKERELVAAITSRGGRTYYADSVKGRFTISRDNAKNTVYLQMNSLKPEDSAVYYCADRFVLHGVYLKFYWGQGTQVTVSS” here?
The value was “high polyreactivity”.

With “QVQLVESGGGLVQAGGSLRLSCAASGSLFGANAMGWYRQAPGKERELVAAISSNGDDTYADSVKGRFTISRDNAKNTVYLQMNSLKPEDTAVYYCNKRPWWWGGDDYWGQGTQVTVSS” as the sequence, how does the “polyreactivity (PSR sort gate)” value read?
The value was “low polyreactivity”.

With “QVQLVESGGGLVQAGGSLRLSCAASGSTFSYYAMGWYRQAPGKEREFVAAISSSGGRTYYADSVKGRFTISRDNAKNTVYLQMNSLKPEDTAVYYCNAYYLAEYDYWGQGTQVTVSS” as the sequence, how does the “polyreactivity (PSR sort gate)” value read?
Its value is “high polyreactivity”.

For “QDQHVESGGGLVQAGGSLRLSCAASGFTFPLKAMGWSRQAPGKERELVAVINYSDGSTYYADSVKGRFSISRDNAKNTVYLQMNSLTPEDTAVYYCAARYYTTYYWGQGTQVTVSS”, which “polyreactivity (PSR sort gate)” value is on record?
The value was “high polyreactivity”.

For “QVQLVESGGGLVQAGGSLRLSCAASGNTFNVYAMGWYRQAPGKERELVAAITLSGGSTYYADSVKGRFTFSRDNAKNTVYLQMNSLKPEDTAVYYCNAEDDGTDYDYWGQGTEVTVSS”, which “polyreactivity (PSR sort gate)” value is on record?
Its value is “low polyreactivity”.

With “QVQLVESGGGLVQAGGRLRLSCAASGSIFITYDMGWYRQAPGKERELVATISTTGGTTYYADSVKGRFTISRDNAMNTVYLQMNSLKPEDTAVYYCAADWRYLYYALDYWGQGTQVTVSS” as the sequence, how does the “polyreactivity (PSR sort gate)” value read?
Its value is “low polyreactivity”.

For “QVQLVESGGGLVHAGGSLRLSCAASGIIFRSYAMGWYRQAPGKERELVAGISLSGGSTYYADSVKGLFTISRDNSKNTVYLQMKSLKPEDTAVYYCATRNHYFRALRYGYWGQGTQVTVSS”, which “polyreactivity (PSR sort gate)” value is on record?
The value was “high polyreactivity”.

With “QVQLVESGGGLVQAGGRLRLSCAASGRTFLYYAMGWSRQAPGKERELVAAINWRGTRTYYADSVKGRFTISRDNAQNTVYLQMNSLKPEDTAVYYCNRQGPDFHLRAGQGNYWGQGTQVTVSS” as the sequence, how does the “polyreactivity (PSR sort gate)” value read?
Its value is “high polyreactivity”.

For “QVHLVESGGGLVQAGGSLRLSCAASGSIIGLYAMGWYRQAPGKERELVAYITGGGSTYYADSVKGRFTISRDIAKNTVYLQMNSLKPEDTAVYYCNKRGTEIGYDYWGQGTQVTVLS”, which “polyreactivity (PSR sort gate)” value is on record?
Its value is “low polyreactivity”.

With “QVQLVESWGGLVQAGGSLRLSCAASGRIFWKYTMGWYRQAPGKERELVAAIRSGGGSTDYADSVKGRFTISRDNAKNSVYLQMNRLIPEDTAGYYCAAEPSQRYPLSGYVYWGQGTQVTVSS” as the sequence, how does the “polyreactivity (PSR sort gate)” value read?
The value was “low polyreactivity”.

With “QVQLVESGGCLVQAGGSLRLSCAACGITFSGYDMGWYRQAPGKERELVADITISTGSTYYADSVKGRFTISRDNAKNTVYLQMNSLKPEDTAVYYCAASPFDYWYDYYGLYKEYYYWRQGTQVTVSS” as the sequence, how does the “polyreactivity (PSR sort gate)” value read?
The value was “low polyreactivity”.

Which “polyreactivity (PSR sort gate)” value does the source give for “QVQLVESGGGLVQAGGSLRLSCAASGFTFGLYGMGWYRQAPGKERELVAAISSSGGDTYYADSVKGRFTISRDNAKNTVYLQMNSLKPEDTAVYYCAATADWATYDYWGQGTQVTVSS” here?
The value was “low polyreactivity”.

For “QVQLVESGGGLVQAGGSLRLSCAASGRTFPVYAMGWYRQAPGKERELVAGITGSGGRTYYADSVKGRFTISRDNAKNTVYLQMNSLKPEDTAVYYCAADRNLYWYQHEYCGQGTQVTVSS”, which “polyreactivity (PSR sort gate)” value is on record?
The value was “low polyreactivity”.

Which “polyreactivity (PSR sort gate)” value does the source give for “QVQLVESGGGLVQAGGSLRLICAASGRTFYYYAMGWDRQAPGKERELVASISYSAGRTYADSVKGRFTISRDNAKNTVYLLMNSLKPEDTAVYYCAAALYVNPYNYGTARWYYYWGQGTQVTVSS” here?
The value was “high polyreactivity”.

For “QVQLVESGGGLVQAGGSLRLSCAASGITLRRNTMGWDRQAPGKERELVAAITRSGGSTYYADSVKGRFTISRDNAKNTVYLQMNSLKPEDTAVYYCAKGPSYGGPSHDYWGQGTQVTVSS”, which “polyreactivity (PSR sort gate)” value is on record?
Its value is “high polyreactivity”.

With “QVQLVESGGGLVQAGGSLRLSCAASGSNFSSYAMGWYREAPGKERELVAAIDGSGGSTYADSVKGRFTISRDNAKNTVYLQMNSLKPEDTAVYYCAVDSFLVYSAVRPYDYWGQGTQVTVSS” as the sequence, how does the “polyreactivity (PSR sort gate)” value read?
The value was “low polyreactivity”.

For “QVQLVESGGGLVQAGGSLRLSCAASGSIFWRYAMGWYRQAPGKERELVAAISSSGSTYYADSVKGRFTISRDNAKNTVYLQMNSLKPEDTAVYYCAKRASALLRHSYDYWGQGTQVSVSS”, which “polyreactivity (PSR sort gate)” value is on record?
The value was “low polyreactivity”.

Which “polyreactivity (PSR sort gate)” value does the source give for “QVQLVESGGGLVQAGGSLRLSCAASGSNITTYAMGWYRQAPGKERELVAAITDTSSTNYADSVKGRFTISRDNAKNTVYLQMNSLKPEVTAVYYCAVDLGYEYDWGQGTQVTVSS” here?
The value was “low polyreactivity”.

For “QVQLVESGGGLVQAGGSLRLSCAASGSTFAYYMGWYRQAPGKERELVASISTYYADSVKGRFTISRDNAKNTVYLQMNSLKPEDTAVYSCAKGYPDPQWGGVLAYDYWGQGTQVTVSS”, which “polyreactivity (PSR sort gate)” value is on record?
Its value is “low polyreactivity”.

For “HVQLVESGVGLVQAGGSLRLSCEASGFIFIRYAMGWYRQAPGQERELVASISSGGSTYYADSVKGRFTISRDNAKNTVYFQMNSLKPEDTAVFYCAAVFSKGLEGDYWGQGTEVTVSS”, which “polyreactivity (PSR sort gate)” value is on record?
The value was “high polyreactivity”.

For “QVQLEESGGGLVQAGGSLRLSCAASGSILRVNVMVWYRQAPGKERELVAAITSGGRTYYADSVKGRFTISRDNAKNTVYLQMNSLIQEDTAVYYCAAKFFRNTYSYGMDYWGQGTQVTVSS”, which “polyreactivity (PSR sort gate)” value is on record?
The value was “high polyreactivity”.
